Data from patent publication US20220306768A1, “REDIRECTING DEATH-INDUCING SIGNAL COMPLEX (DISC) BY MODIFYING DEATH RECEPTOR AGONIST TO INDUCE CELL DEATH FOR CANCER TREATMENT” (CITY OF HOPE, priority 2021, published 2022).
“Also recorded” adds a separate entry of the source.

Columns and labels:
[1] = phase I studies (Herbst et al., 2010); cited from earlier work
[2] = tested on: NCI 60-cancer cell panel (60 different human cancer cell lines); experiment: NCI 60-cancer cell panel, cell death; format: cell-based
Description: TAT-TRAIL was tested in an NCI 60-cancer cell panel, which included 60 different human cancer cell lines set up by the National Cancer Institute for cancer therapeutics screening. Among the 60 cell lines of various cancer types, 33 were sensitive to parental TRAIL, but 27 were resistant.

[3] = tested on: TRAIL-sensitive cancer cell lines; experiment: Caspase activity in cancer cell lines (FIG. 8); format: cell-based
Description: Of the 60 NCI cancer cell lines, 33 TRAIL-sensitive cells lines become more sensitive to TAT-TRAIL, while 17 of TRAIL-resistant cell lines become sensitive to TAT-TRAIL, only 10 cell lines remain resistant.

[4] = tested on: Hep3B cell line; experiment: Cell viability in the Hep3B cell line (FIG. 9); format: cell-based; settings: after 48 hours
[5] = tested on: cancer cell lines; experiment: Cell death induction in cancer cell lines (Example 1); format: cell-based
Description: Redirecting TRAIL-induced signaling away from lysosomal degradation induced massive cell death and overcame TRAIL resistance. This was done by fusing bioactive protein transduction domains (PTD—or CPPs) and signaling peptides, such as TAT peptide from HIV TAT protein, NLS (nuclear localization signal), MTS (mitochondrial targeting sequence), with TRAIL to construct a series of new TRAILs, as shown in FIG. 7.

[6] = tested on: OVCAR3 cells; experiment: Ovarian cancer xenograft model OVCAR3, implanted intraperitoneally; format: in vivo; settings: intraperitoneal implant, preliminary data, FIG. 6
Description: (§1) In vivo testing was performed using ovarian cancer xenograft models, OVCAR3 and A2780, implanted intraperitoneally.

[7] = tested on: A2780 cells; experiment: Ovarian cancer xenograft model A2780, implanted intraperitoneally; format: in vivo; settings: intraperitoneal implant, preliminary data, FIG. 6
Description: as §1

[8] = of the 60 NCI cancer cell lines
[9] = among the 60 cell lines of various cancer types

In the case of “recombinant human TRAIL: recombinant human tumor necrosis factor-related apoptosis-inducing ligand tested in clinical studies”, the tolerability [1] is given as “well tolerated”.

B1: TAT-TRAIL: fusion protein: TRAIL component fused to a 9-amino acid TAT peptide (RKKRRQRRR, SEQ ID NO:2); e.g. poly-His-TAT-hTRAIL94-281 (SEQ ID NO:3) (protein)
chain: HHHHHHRKKRRQRRRRTSEETISTVQEKQQNISPLVRERGPQRVAAHITGTRGRSNTLSSPNSKNEKALGRKINSWESSRSGHSFLSNLHLRNGELVIHEKGFYYIYSQTYFRFQEEIKENTKNDKQMVQYIYKYTSYPDPILLMKSARNSCWSKDAEYGLYSIYQGGIFELKENDRIFVSVTNEHLIDMDHEASFFGAFLVG
modifications: TAT-TRAIL
In the case of B1, the “cell death in TRAIL-sensitive cell lines compared with His-tagged parental TRAIL construct” value ([2]; TRAIL-sensitive cell lines (33 of 60), FIG. 5) is reported as “faster and massive cell death in all 33 TRAIL-sensitive cell lines”, the “increase of potency over parental TRAIL” value ([2]; cell lines resistant to parental TRAIL) is reported as “up to a hundred times” and the “number of TRAIL-sensitive cell lines that become more sensitive” value [2, 8] is reported as 33. The “number of cell lines that remain resistant” value [2, 8] was 10, the “number of TRAIL-resistant cell lines in which effective cell death was executed (become sensitive)” value ([2]; out of the 27 cell lines resistant to parental TRAIL) was 17 and the “caspase activity compared to control and His-tagged parental TRAIL” value [3] was “higher caspase activity”. For the same molecule, the “IC50 (cell viability)” value [4] was “low”, the “potency as compared to the His-tagged parental TRAIL” value [4] was “approximately sixty times greater potency” and the “cell death in TRAIL-resistant cancer cells” value ([5]; TRAIL-resistant cancer cells) was “induced massive cell death in TRAIL-resistant cancer cells”. For the same molecule, the “time to induce cell death” value ([5]; cancer cell lines) was “less than 1 hour”, the “potency in inducing cell death, cancer cells versus normal cells” value ([5]; cancer cells and normal cells) was “remarkable high potency in inducing cell death in cancer cells but not normal cells” and the antitumor effects [6] was “notable antitumor effects; also recorded: remarkable antitumor effects”. For the same molecule, the antitumor effects [7] was “notable antitumor effects; also recorded: remarkable antitumor effects”.

B2: parental TRAIL: His-tagged parental TRAIL construct without TAT peptide, used as comparator (protein, UniProt P50591 39-281, looked up)
extracellular domain: TNELKQMQDKYSKSGIACFLKEDDSYWDPNDEESMNSPCWQVKWQLRQLVRKMILRTSEETISTVQEKQQNISPLVRERGPQRVAAHITGTRGRSNTLSSPNSKNEKALGRKINSWESSRSGHSFLSNLHLRNGELVIHEKGFYYIYSQTYFRFQEEIKENTKNDKQMVQYIYKYTSYPDPILLMKSARNSCWSKDAEYGLYSIYQGGIFELKENDRIFVSVTNEHLIDMDHEASFFGAFLVG
modifications: extracellular domain His tag
notes: His-tagged parental TRAIL construct without TAT peptide, used as comparator
For B2, the “number of cell lines resistant to the agent” value [2, 9] was 27 and the “number of cell lines sensitive to the agent” value [2, 9] was 33.
